In US20260117202A1:
Where “and” joins values, the source holds several entries; their conditions need not be identical. Identical values can stand only once.

Columns and labels:
[1] = target: FHCS-1 (RSV strain A2) (UniProt P03420); experiment: ELISA; F coated 1250 ng/ml; stored -80° C.
[2] = target: FHCS-2 (RSV strain A2) (UniProt P03420); experiment: ELISA; F coated 1250 ng/ml; stored -80° C.
[3] = target: FHCS-4 (RSV strain A2) (UniProt P03420); experiment: ELISA; F coated 1250 ng/ml; stored -80° C.
[4] = target: FHM-1 (RSV strain A2) (UniProt P03420); experiment: sandwich ELISA, AM14 coated, supernatant 1:10
[5] = target: FHM-10 (RSV strain A2) (UniProt P03420); experiment: sandwich ELISA, AM14 coated, supernatant 1:10
[6] = target: FHM-19 (RSV strain A2) (UniProt P03420); experiment: sandwich ELISA, AM14 coated, supernatant 1:10
[7] = target: FHM-2 (RSV strain A2) (UniProt P03420); experiment: sandwich ELISA, AM14 coated, supernatant 1:10
[8] = target: FHM-23 (RSV strain A2) (UniProt P03420); experiment: sandwich ELISA, AM14 coated, supernatant 1:10
[9] = target: FHS-11 (RSV strain A2) (UniProt P03420); experiment: sandwich ELISA, AM14 coated, supernatant 1:10
[10] = target: FHS-13 (RSV strain A2) (UniProt P03420); experiment: sandwich ELISA, AM14 coated, supernatant 1:10
[11] = target: FHS-16 (RSV strain A2) (UniProt P03420); experiment: sandwich ELISA, AM14 coated, supernatant 1:10
[12] = target: FHS-19 (RSV strain A2) (UniProt P03420); experiment: sandwich ELISA, AM14 coated, supernatant 1:10
[13] = target: FHS-2 (RSV strain A2) (UniProt P03420); experiment: sandwich ELISA, AM14 coated, supernatant 1:10
[14] = target: FHS-21 (RSV strain A2) (UniProt P03420); experiment: sandwich ELISA, AM14 coated, supernatant 1:10
[15] = target: FHS-26 (RSV strain A2) (UniProt P03420); experiment: sandwich ELISA, AM14 coated, supernatant 1:10
[16] = target: FHS-27 (RSV strain A2) (UniProt P03420); experiment: sandwich ELISA, AM14 coated, supernatant 1:10
[17] = target: FHS-32 (RSV strain A2) (UniProt P03420); experiment: sandwich ELISA, AM14 coated, supernatant 1:10
[18] = target: FHS-39 (RSV strain A2) (UniProt P03420); experiment: sandwich ELISA, AM14 coated, supernatant 1:10
[19] = target: FHS-44 (RSV strain A2) (UniProt P03420); experiment: sandwich ELISA, AM14 coated, supernatant 1:10
[20] = target: FHS-49 (RSV strain A2) (UniProt P03420); experiment: sandwich ELISA, AM14 coated, supernatant 1:10
[21] = target: FHS-51 (RSV strain A2) (UniProt P03420); experiment: sandwich ELISA, AM14 coated, supernatant 1:10
[22] = target: FHS-55 (RSV strain A2) (UniProt P03420); experiment: sandwich ELISA, AM14 coated, supernatant 1:10
[23] = target: FHS-60 (RSV strain A2) (UniProt P03420); experiment: sandwich ELISA, AM14 coated, supernatant 1:10
[24] = target: FHS-68 (RSV strain A2) (UniProt P03420); experiment: sandwich ELISA, AM14 coated, supernatant 1:10
[25] = target: FHS-70 (RSV strain A2) (UniProt P03420); experiment: sandwich ELISA, AM14 coated, supernatant 1:10
[26] = target: FHS-72 (RSV strain A2) (UniProt P03420); experiment: sandwich ELISA, AM14 coated, supernatant 1:10
[27] = target: FHS-77 (RSV strain A2) (UniProt P03420); experiment: sandwich ELISA, AM14 coated, supernatant 1:10
[28] = target: FHS-87 (RSV strain A2) (UniProt P03420); experiment: sandwich ELISA, AM14 coated, supernatant 1:10
[29] = target: FHS-90 (RSV strain A2) (UniProt P03420); experiment: sandwich ELISA, AM14 coated, supernatant 1:10
[30] = target: FHS-98 (RSV strain A2) (UniProt P03420); experiment: sandwich ELISA, AM14 coated, supernatant 1:10
[31] = target: wild-type RSV F protein 1 before artificial mutation (RSV strain A2) (UniProt P03420); experiment: sandwich ELISA, AM14 coated, supernatant 1:10

AM14 monoclonal antibody
OD value [1]: 0.011 OD and 0.015 OD
OD value [2]: 0.017 OD and 0.02 OD
OD value [3]: 0.007 OD and 0.006 OD
OD value [4]: 2.29 OD
OD value [5]: 0.01 OD
OD value [6]: 0.367 OD
OD value [7]: 2.23 OD
OD value [8]: 1.89 OD
OD value [9]: 2.04 OD
OD value [10]: 0.013 OD
OD value [11]: 0.009 OD
OD value [12]: 0.007 OD
OD value [13]: 0.012 OD
OD value [14]: 0.008 OD
OD value [15]: 0.841 OD
OD value [16]: 0.005 OD
OD value [17]: 0.008 OD
OD value [18]: 0.007 OD
OD value [19]: 0.039 OD
OD value [20]: 1.96 OD
OD value [21]: 0.006 OD
OD value [22]: 0.009 OD
OD value [23]: 0.007 OD
OD value [24]: 1.99 OD
OD value [25]: 0.007 OD
OD value [26]: 0.007 OD
OD value [27]: 0.06 OD
OD value [28]: 0.239 OD
OD value [29]: 0.007 OD
OD value [30]: 0.007 OD
OD value [31]: 0.014 OD
